Measurements reported in the supplement of paper PMC7125110.
± gives the standard error. Fewer inactive variants are shown than the library holds.

B1: glmS ribozyme (parent)
chain: AUAAAAGCGCCAGAACUACAGAAAUGUAGUUGACGAGGAGGAGGUUUAUCGAAUUUUCGGCGGAUGCCUCCAAA

Tests used:
Details in all cases: with glucosamine-6-phosphate
[1] = variants of: B1; test: self-cleavage kobs at 640 uM GlcN6P; higher = faster cleavage; RNA array
Summary of the method: (§1)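 kcat and KM were obtained from weighted Michaelis–Menten fits across concentrations of kobs values. Those came from one- or two-exponential decay fits to per-tile medians normalised to baseline and to non-cleaving reference variants. The variants were barcoded ribozymes transcribed in situ by E. coli RNA polymerase on sequenced MiSeq chips and tracked through a hybridised Cy3 probe at 37 °C, with 40 μM to 10 mM glucosamine-6-phosphate in HEPES/KCl/Mg(OAc)2 buffer flowed in.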

[2] = variants of: B1; test: self-cleavage kobs at 2500 uM GlcN6P; higher = faster cleavage; RNA array
Summary of the method: as §1

[3] = variants of: B1; test: self-cleavage kobs at 10000 uM GlcN6P; higher = faster cleavage; RNA array
Summary of the method: as §1

Row | Variant | self-cleavage kobs at 640 uM GlcN6P [1] | self-cleavage kobs at 2500 uM GlcN6P [2] | self-cleavage kobs at 10000 uM GlcN6P [3]
1 | A6U G29A G44U | < 1e-05 s⁻¹ |  | 
2 | U30G C61U C71G | < 1e-05 s⁻¹ |  | 
3 | G9C C16A G63C C71G | < 1e-05 s⁻¹ |  | 
4 | G35U A42G A48U | < 1e-05 s⁻¹ |  | 
5 | G40C G44C C61U | < 1e-05 s⁻¹ | < 1e-05 s⁻¹ | 
6 | C11A G35C C50U C58U | < 1e-05 s⁻¹ | < 1e-05 s⁻¹ | 
7 | U46G G62C | < 1e-05 s⁻¹ |  | < 1e-05 s⁻¹
8 | G9U G44A A64C | < 1e-05 s⁻¹ |  | 
9 | U30A U45G | 0.000279 ± 6.7e-05 s⁻¹ | 0.000752 ± 0.00013 s⁻¹ | 
10 | C8A C19A | < 1e-05 s⁻¹ | < 1e-05 s⁻¹ | 
11 | A42U C61U C67U | < 1e-05 s⁻¹ |  | 
12 | G43A G44A C58U | < 1e-05 s⁻¹ |  | 
13 | G9U A33C G41U G62C | < 1e-05 s⁻¹ | < 1e-05 s⁻¹ | 
14 | A12G A14U A15U C71A | 6.44e-05 ± 1.9e-05 s⁻¹ | 7.44e-05 ± 1.8e-05 s⁻¹ | 
15 | G32U A33U C34A A36C | < 1e-05 s⁻¹ | < 1e-05 s⁻¹ | 
16 | C11G G44A U55A | < 1e-05 s⁻¹ | < 1e-05 s⁻¹ | 
17 | C16G G59C C61U | < 1e-05 s⁻¹ | < 1e-05 s⁻¹ | 
18 | C50A G62C A64G | < 1e-05 s⁻¹ |  | 
19 | A36C G41U A53G | < 1e-05 s⁻¹ |  | 
20 | A36C G38U U49A | < 1e-05 s⁻¹ | < 1e-05 s⁻¹ | 
21 | U31G G51A | < 1e-05 s⁻¹ |  | 
22 | C11G A12G U45G U47A C71G | < 1e-05 s⁻¹ | < 1e-05 s⁻¹ | 
23 | C16G A39C G41U U56C C67U | < 1e-05 s⁻¹ |  | 

Row | Variant | self-cleavage kobs at 640 uM GlcN6P [1] | self-cleavage kobs at 2500 uM GlcN6P [2] | self-cleavage kobs at 10000 uM GlcN6P [3]
24 | A36U C61U C71U | < 1e-05 s⁻¹ |  | < 1e-05 s⁻¹
25 | U31A G44A C67U | 0.00323 ± 0.0014 s⁻¹ | 0.00757 ± 0.0024 s⁻¹ | 0.00871 ± 0.0018 s⁻¹
26 | A12C C70G C71G | 5.18e-05 ± 2.5e-05 s⁻¹ | 4.37e-05 ± 1.9e-05 s⁻¹ | 
27 | A15U G37A | 0.000117 ± 2.4e-05 s⁻¹ | 0.000103 ± 2.8e-05 s⁻¹ | 0.000568 ± 0.00011 s⁻¹
28 | G9U U30C U57A | < 1e-05 s⁻¹ | < 1e-05 s⁻¹ | 
29 | A15G G29A G63C | < 1e-05 s⁻¹ |  | 
30 | C8G A12U G43A C67A | < 1e-05 s⁻¹ | < 1e-05 s⁻¹ | 
31 | A12U U31G G41U | 0.00016 ± 5.9e-05 s⁻¹ | 0.000471 ± 0.00018 s⁻¹ | 
32 | U55A G60C U65A | < 1e-05 s⁻¹ | < 1e-05 s⁻¹ | 
33 | C10U U57C | < 1e-05 s⁻¹ |  | < 1e-05 s⁻¹
34 | G9A U31G A52C | < 1e-05 s⁻¹ |  | 
35 | C16G G29A A39C | 0.000119 ± 2.9e-05 s⁻¹ | 0.00027 ± 6.6e-05 s⁻¹ | 
36 | G9C A12C C58U | < 1e-05 s⁻¹ | < 1e-05 s⁻¹ | 
37 | A6U C11U U31C G40A G44A U55A | < 1e-05 s⁻¹ |  | 
38 | G32C G63U U69G | 0.00126 ± 0.00029 s⁻¹ |  | 
39 | A12U A14C G29C | 4.97e-05 ± 2e-05 s⁻¹ | 0.000232 ± 7.7e-05 s⁻¹ | 
40 | C8U U30A C71U | < 1e-05 s⁻¹ |  | 
41 | C16U G66U C68G | 0.000124 ± 4.1e-05 s⁻¹ |  | 
42 | A39G G62U C70U | < 1e-05 s⁻¹ | < 1e-05 s⁻¹ | 
43 | C8A A12U A15U C70A | < 1e-05 s⁻¹ |  | 
44 | A12U G44U U45C C70G | < 1e-05 s⁻¹ |  | 
45 | A15U U31C A39C | 4.66e-05 ± 1.3e-05 s⁻¹ | 0.000126 ± 2.4e-05 s⁻¹ | 
46 | C10G C61G A64U | < 1e-05 s⁻¹ | < 1e-05 s⁻¹ | 

Row | Variant | self-cleavage kobs at 640 uM GlcN6P [1] | self-cleavage kobs at 2500 uM GlcN6P [2] | self-cleavage kobs at 10000 uM GlcN6P [3]
47 | C58G C61U G63U C68A | 0.000162 ± 5.6e-05 s⁻¹ | 0.000151 ± 4.4e-05 s⁻¹ | 
48 | A15U G35C C50U | < 1e-05 s⁻¹ |  | 
49 | A6U A14G G60C | < 1e-05 s⁻¹ |  | 
50 | G9A G13C A64G C70U | < 1e-05 s⁻¹ |  | 
51 | A42G U54G U55G U65A C67A C71U | 0.000215 ± 3.1e-05 s⁻¹ | 8.43e-05 ± 2e-05 s⁻¹ | 
52 | A6C A15U G29A A53G | < 1e-05 s⁻¹ |  | 
53 | A14U A36C G37A G38A | < 1e-05 s⁻¹ |  | 
54 | C50U G59U U69A C70G | 0.000556 ± 0.00018 s⁻¹ | 7.32e-05 ± 2.9e-05 s⁻¹ | 
55 | G44C U47G | < 1e-05 s⁻¹ |  | 
56 | A6G G43U U69G | < 1e-05 s⁻¹ |  | 
57 | A6C G43C C71U | < 1e-05 s⁻¹ |  | 
58 | U31A U69C C71G | 8.22e-05 ± 1.8e-05 s⁻¹ | 6.01e-05 ± 1.7e-05 s⁻¹ | 3.9e-05 ± 1.6e-05 s⁻¹
59 | G13A A39G A52C | < 1e-05 s⁻¹ |  | 
60 | G43C U46G U56G | < 1e-05 s⁻¹ |  | 
61 | C10U U49G C58A | < 1e-05 s⁻¹ |  | 
62 | G7A A33C G66C | < 1e-05 s⁻¹ |  | 
63 | G35C C58A C67U | < 1e-05 s⁻¹ |  | 
64 | G9A U45A C50G C68U | < 1e-05 s⁻¹ |  | < 1e-05 s⁻¹
65 | U31C U56A | 0.00164 ± 0.00028 s⁻¹ | 0.00201 ± 0.00053 s⁻¹ | 
66 | C8U U55G G60U | < 1e-05 s⁻¹ |  | 
67 | G13A U31G A33U | < 1e-05 s⁻¹ | < 1e-05 s⁻¹ | 
68 | A12C G29C G37A U55A | 4.45e-05 ± 1.9e-05 s⁻¹ |  | 
